# Results as given in patent US20210380703A1 (RIGEL PHARMACEUTICALS, published 2021).
# Substitutions are numbered along the chain they refer to.
# B1: 373_E11 (antibody, V domains shown)
# VH: EVQLLESGGGLVQPGGSLRLSCAASGFTFDSYGMHWVRQAPGKGLEWVASINYNGGYTSYADSVKGRFTISRDNSKNTLYLQMNSLRAEDTAVYYCARAANWHDTALDYWGQGTLVTVSS
# VL: DIQMTQSPSSLSASVGDRVTITCRASQSIVSYLNWYQQKPGKAPKLVIYAATSRASGVPSRFSGSGSGTDFTLTISSLQPEDFATYYCQQSYDSPLTFGGGTKVEIK
# notes: Group I
# B2: 366_A06 (antibody, V domains shown)
# VH: B1 VH with D30S, S31D, G33S, H35N, T58K, A99G, A106H
# VL: not shown
# notes: Group III
# B3: 376_D08 (antibody, V domains shown)
# VH: B1 VH with H35N, S50N, G55S, T58K, N101T
# VL: B1 VL with V30L, S31T, A50Y, T52N, S53N, A55P, D93S, S94N
# notes: Group II
# B4: 375_A04 (antibody, V domains shown)
# VH: B1 VH with H35N, S50G, T58K
# VL: B1 VL with V30L, S31T, A50Y, A51V, T52N, S53N, R54L, A55P, D93N
# notes: Group I
# B5: 366_A08 (antibody, V domains shown)
# VH: B1 VH with S31D, G33S, H35N, A49S, S50G, G55S, T58K, S59G, A99G, A106H
# VL: B1 VL with L33V, D93N
# notes: Group III
# B6: 366_B05 (antibody, V domains shown)
# VH: B1 VH with D30S, S31D, G33S, H35N, A49S, S50G, G55S, T58K, A99G
# VL: B1 VL with V30S, A51V, D93E, S94L
# notes: Group III
# B7: 365_E10 (antibody, V domains shown)
# VH: B1 VH with G33S, H35N, A49S, G55S, T58K, S59G, A99G, A106H
# VL: not shown
# notes: Group III
# B8: 371_D07 (antibody, V domains shown)
# VH: B1 VH with S31D, H35N, S50N, T58K, S59G, A106H
# VL: B1 VL with V30L, S31T, D93E, S94L
# notes: Group I
# B9: 365_B10 (antibody, V domains shown)
# VH: B1 VH with S31D, G33S, G55S, T58K, S59G
# VL: B1 VL with V30L, S31R, V47L, Y92D, D93N, S94L
# notes: Group I
# B10: 375_A11 (antibody, V domains shown)
# VH: B1 VH with D30S, S31D, A49S, G55S, T58K
# VL: B1 VL with V47L, A50Y, A51V, S53N, R54L, S94N
# notes: Group I
# B11: 375_C10 (antibody, V domains shown)
# VH: B1 VH with D30S
# VL: not shown
# notes: Group I
# B12: 374_B01 (antibody, V domains shown)
# VH: B1 VH with S50G, G55S, N101T, A106H
# VL: B1 VL with V30L, V47L, T52S, R54L, A55Q
# notes: Group II
# B13: 375_C03 (antibody, V domains shown)
# VH: B1 VH with G33S, A49S, S50G, N101T, A106H
# VL: B1 VL with V30L, L33V, D93E
# notes: Group II
# B14: 375_F12 (antibody, V domains shown)
# VH: B1 VH
# VL: B1 VL with V30L, S31T, Y92D, D93E, S94L
# notes: Group I
# B15: 376_G02 (antibody, V domains shown)
# VH: B1 VH with D30S, S31D, H35N, A49S, S50G
# VL: B1 VL with V30S, S31R, R54L, S94N
# notes: Group I
# B16: 375_H04 (antibody, V domains shown)
# VH: B1 VH with D30S, S50G, G55S, S59G, N101T, A106H
# VL: B1 VL with V30L, D93S, S94N
# notes: Group II
# B17: 376_F09 (antibody, V domains shown)
# VH: B1 VH with G33S, A49S, T58K, N101T, A106H
# VL: B1 VL with V30L, S31T, L33V, V47L, A51V, S94T
# notes: Group II
# B18: 373_G06 (antibody, V domains shown)
# VH: B1 VH with D30S, G55S, S59G, N101T, A106H
# VL: B1 VL with V30L, L33V, V47L, R54L, D93N, S94L
# notes: Group II
# B19: 374_H02 (antibody, V domains shown)
# VH: B1 VH with D30S, N101T, A106H
# VL: B1 VL with V30L, L33V, V47L, R54L, S94T
# notes: Group II
# B20: 374_B07 (antibody, V domains shown)
# VH: B1 VH with D30S, A49S, T58K, N101T, A106H
# VL: B1 VL with V30I, V47L, R54L, D93E
# notes: Group II
# B21: 374_F03 (antibody, V domains shown)
# VH: B1 VH with D30S, H35N, A106H
# VL: B1 VL with V30I, L33V, S94T
# notes: Group I
# B22: 375_G08 (antibody, V domains shown)
# VH: B1 VH with D30S, A49S, S50G, N101T, A106H
# VL: B1 VL with V30S, L33V, V47L, A51V, D93S, S94T
# notes: Group II
# B23: 375_D02 (antibody, V domains shown)
# VH: B1 VH with D30S, G33S, H35N, A49S, S50N, N101T, A106H
# VL: B1 VL with V30L, S31T, V47L, T52S, R54L, A55Q, D93E, S94L
# notes: Group II
# B24: 376_H12 (antibody, V domains shown)
# VH: B1 VH with D30S, S31D, N101T, A106H
# VL: B1 VL with V30I, S31T, D93E
# notes: Group II
# B25: 374_B02 (antibody, V domains shown)
# VH: B1 VH with G33S, S50G, G55S, A106H
# VL: B1 VL with V30I, V47L
# notes: Group I
# B26: 374_A12 (antibody, V domains shown)
# VH: B1 VH with A49S, N101T, A106H
# VL: B1 VL with V30L, S31T, V47L, Y92D, D93S, S94N
# notes: Group II
# B27: 375_H01 (antibody, V domains shown)
# VH: B1 VH with D30S, S31D, G33S, H35N, S50G, G55S, A106H
# VL: B1 VL with V30L, S31T, V47L, A55H, D93S, S94N
# notes: Group I
# B28: 370_A03 (antibody, V domains shown)
# VH: B1 VH with D30S, G33S, H35N, A49S, S50N, A99S
# VL: B1 VL with V30L, V47L
# B29: 367_E06 (antibody, V domains shown)
# VH: B1 VH with G33S, H35N, A49S, G55S, T58K, S59G, A99S, A106H
# VL: not shown
# B30: 367_C01 (antibody, V domains shown)
# VH: B1 VH with S31D, G33S, H35N, A49S, S50G, T58K, A99S, A106H
# VL: B1 VL with V30L, S31T, A51T, R54L, A55H, S94T
# B31: 367_C11 (antibody, V domains shown)
# VH: B1 VH with G33S, H35N, A49S, G55S, S59G, A99S, A106H
# VL: B1 VL with V30L, A55H, D93N, S94T
# B32: 367_C05 (antibody, V domains shown)
# VH: B1 VH with S31D, H35N, A49S, S59G, A99S, A106H
# VL: B1 VL with V30L, L33V, A55H, S94L
# B33: 367_E04 (antibody, V domains shown)
# VH: B1 VH with D30S, S31D, G33S, H35N, A49S, T58K, S59G, A99S, A106H
# VL: B1 VL with V30L, V47L, D93E
# B34: 367_D10 (antibody, V domains shown)
# VH: B1 VH with H35N, A49S, S50N, A99S
# VL: B1 VL with V30I, S94T
# B35: 367_E01 (antibody, V domains shown)
# VH: B1 VH with D30S, H35N, S50G, T58K, A99S
# VL: B1 VL with V30L, L33V, V47L, A51T, S94L
# Target: mouse ACVR2A (mouse, UniProt P27038 20-135, limits assumed)
# Assay: ELISA
# Outline: (§1)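 Binding signal was read by ELISA after ACVR2A-specific monoclonal antibodies were tested against human ACVR2A and mouse ACVR2A, with human Fc as the negative control.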
# Further: test concentration or dose not given here.
# Sequence of mouse ACVR2A (P27038 20-135 limits assumed): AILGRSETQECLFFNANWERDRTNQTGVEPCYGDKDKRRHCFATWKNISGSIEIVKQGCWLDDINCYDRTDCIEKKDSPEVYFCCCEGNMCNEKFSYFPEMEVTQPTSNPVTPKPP
row,optical density [OD],Binder
1,3.36,B1
2,2.25,B2
3,3.71,B3
4,3.73,B4
5,1.73,B5
6,2.46,B6
7,2.05,B7
8,2.9,B8
9,2.78,B9
10,3.7,B10
11,3.6,B11
12,3.37,B12
13,3.24,B13
14,3.14,B14
15,3.7,B15
16,3.16,B16
17,3.59,B17
18,3.52,B18
19,3.26,B19
20,3.71,B20
21,3.62,B21
22,3.43,B22
23,3.56,B23
24,3.08,B24
25,3.54,B25
26,3.26,B26
27,3.06,B27

# Target: T1, human ACVR2A (human, UniProt P27037 20-135, limits assumed)
# T1 construct: also called activin receptor, type II A
# Assay: ELISA
# Outline: as §1
# T1 sequence (P27037 20-135 limits assumed): as the sequence (P27038 20-135 limits assumed) above, with R20K, I73V counted along it
row,optical density [OD],Binder
1,3.3,B1
2,1.97,B2
3,3.81,B3
4,3.72,B4
5,1.65,B5
6,2.38,B6
7,1.82,B7
8,2.66,B8
9,2.82,B9
10,3.73,B10
11,3.46,B11
12,3.14,B12
13,3,B13
14,2.95,B14
15,3.69,B15
16,3.11,B16
17,3.5,B17
18,3.4,B18
19,3.26,B19
20,3.71,B20
21,3.53,B21
22,3.33,B22
23,3.63,B23
24,3.23,B24
25,3.42,B25
26,3.31,B26
27,2.79,B27

# Target: T2, Human ACVR2A (human, UniProt P27037 20-135, limits assumed)
# T2 construct: also called activin receptor, type II A
# Assay: ELISA
# Outline: as §1
# T2 sequence (P27037 20-135 limits assumed): as the sequence (P27038 20-135 limits assumed) above, with R20K, I73V counted along it
row,optical density [OD],Binder
1,3.54,B28
2,2.02,B29
3,2.62,B30
4,2.33,B31
5,2.21,B32
6,2.41,B33
7,2.7,B34
8,2.55,B35

# Target: Mouse ACVR2A (mouse, UniProt P27038 20-135, limits assumed)
# Assay: ELISA
# Outline: as §1
# Sequence of Mouse ACVR2A (P27038 20-135 limits assumed): as the sequence (P27038 20-135 limits assumed) above
row,optical density [OD],Binder
1,3.63,B28
2,2.31,B29
3,2.99,B30
4,2.54,B31
5,2.86,B32
6,2.57,B33
7,2.67,B34
8,2.52,B35

# Target: T3, Goat anti-Human Kappa
# T3 construct: Positive control of the ELISA; also called biotinylated goat anti-human kappa light chain
# Assay: ELISA, positive control
# Outline: as §1
row,optical density [OD],Binder
1,3.56,B28
2,3.48,B29
3,3.71,B30
4,3.45,B31
5,3.42,B32
6,3.5,B33
7,3.38,B34
8,3.61,B35

# Target: T4, biotinylated goat anti-human kappa light chain
# T4 construct: positive control of the ELISA
# Assay: ELISA, positive control
# Outline: as §1
row,optical density [OD],Binder
1,3.17,B1
2,3.24,B2
3,3.47,B3
4,3.1,B4
5,3.23,B5
6,2.96,B6
7,3.34,B7
8,3.59,B8
9,3.21,B9
10,3.05,B10
11,3.33,B11
12,2.92,B12
13,3.16,B13
14,3.17,B14
15,3.55,B15
16,3.15,B16
17,3.35,B17
18,3.23,B18
19,3.18,B19
20,3.29,B20
21,3.23,B21
22,3.27,B22
23,3.2,B23
24,3.49,B24
25,3.02,B25
26,3.06,B26
27,3.1,B27
